Abundance fitness data for 40 variants are collected here from the Human Domainome abundance scans (Beltran et al. 2025).

± gives the uncertainty stated by the source.

To fix the notation:
B1: SWI/SNF-related matrix-associated actin-dependent regulator of chromatin subfamily B member 1, residues 181 to 248; numbered along this chain, Q12824 (parent)
chain: SQPEVLVPIRLDMEIDGQKLRDAFTWNMNEKLMTPEMFSEILCDDLDLNPLTFVPAIASAIRQQIESY

The data set covers variants of B1. As to the kind of experiment: abundance fitness (aPCA) (normalised: wild type 0, dead -1); higher = more abundant; growth selection in yeast, the domain comes from the species named. As to conditions: Homo sapiens.
In the case of SQPEVLVPIRLDMEIDGQKLRDAFTWNMNEKLMTPEMFSEILCDDLDLNPLTFVPAIASAIRQQMESY [I65M], the abundance fitness is -0.477 ± 0.13.

Take SQPEVIVPIRLDMEIDGQKLRDAFTWNMNEKLMTPEMFSEILCDDLDLNPLTFVPAIASAIRQQIESY [L6I]: the abundance fitness is -0.03 ± 0.43.

With SQPEVLVPIRLDMEIDGQKLRDAFTWNMNEKLMTPEMFSEILCDDLDLIPLTFVPAIASAIRQQIESY [N49I], the abundance fitness was -0.932 ± 0.23.

As for SQPEVLVPIRLDMEIDGQKLRDAFTWNMNEKLMTPEMFSEILCDDLDLFPLTFVPAIASAIRQQIESY [N49F], the abundance fitness is -0.923 ± 0.12.

Take SQPEVLVPIRLDMEIDGQKLRDAFTWNMNEKLMTPEMFSEILCDDLDLKPLTFVPAIASAIRQQIESY [N49K]: the abundance fitness was -0.824 ± 0.13.

With SQPEVLVPIRLDMEIDGQKLRDAFTWNMNEKLMTPEMFSEILCDDLDLNPLTFVPAIASAIRQQIEEY [S67E], the abundance fitness was -0.011 ± 0.074.

In the case of SQPEVLVPIRLDMEIDGQKLRDAFLWNMNEKLMTPEMFSEILCDDLDLNPLTFVPAIASAIRQQIESY [T25L], the abundance fitness was -0.134 ± 0.046.

Regarding SQPEVLGPIRLDMEIDGQKLRDAFTWNMNEKLMTPEMFSEILCDDLDLNPLTFVPAIASAIRQQIESY [V7G], the abundance fitness is -0.873 ± 0.1.

With SQPEVLVPINLDMEIDGQKLRDAFTWNMNEKLMTPEMFSEILCDDLDLNPLTFVPAIASAIRQQIESY [R10N], the abundance fitness was -0.03 ± 0.31.

Take SQPEVLVPIRLDMEIDGQKLRDAFTWNMNEKLMTPEMFSEILGDDLDLNPLTFVPAIASAIRQQIESY [C43G]: the abundance fitness was -0.739 ± 0.12.

For the variant SQPEKLVPIRLDMEIDGQKLRDAFTWNMNEKLMTPEMFSEILCDDLDLNPLTFVPAIASAIRQQIESY [V5K], the abundance fitness was -0.051 ± 0.31.

In the case of SQPEVLVPIRLDMEIDGQKLRDAFTWNMNEKLMTPEMFSEILCDQLDLNPLTFVPAIASAIRQQIESY [D45Q], the abundance fitness was -0.284 ± 0.48.

SQPEVLVPIRLDMEIDGRKLRDAFTWNMNEKLMTPEMFSEILCDDLDLNPLTFVPAIASAIRQQIESY [Q18R]: the abundance fitness was -0.276 ± 0.13.

Regarding SQPEVLVPIRLDMEIDGQKLRDAFTWNMNEKLMTPEMFSEILCDDLDLNNLTFVPAIASAIRQQIESY [P50N], the abundance fitness is -0.567 ± 0.1.

As for SQPEVLVPIRLDMEIVGQKLRDAFTWNMNEKLMTPEMFSEILCDDLDLNPLTFVPAIASAIRQQIESY [D16V], the abundance fitness was -1.02 ± 0.14.

As to SQPEVLVPIRLDMEIDGQKLRDAFTWNMNEKLMTPEMFSEILCDDLDLNPLTFVPATASAIRQQIESY [I57T], the abundance fitness is -0.855 ± 0.14.

Regarding SQPEVLVPIRLDMEIDGQKLRDAFTWNMNEKLMTPEMFSEILCDDLDLNPLTFVPASASAIRQQIESY [I57S], the abundance fitness is -0.802 ± 0.096.

Turning to SQPEVLVPIRLDMEIDGQKLRDAFTWNMNEKLMTPEMFSEILCDDLDLNPLTFVPAIASAIRQQICSY [E66C], the abundance fitness is -0.385 ± 0.098.

Regarding SQPEVLVPIRLDMEIDGQKLRDAFTANMNEKLMTPEMFSEILCDDLDLNPLTFVPAIASAIRQQIESY [W26A], the abundance fitness is -1 ± 0.28.

As to SQPEVLVPIRLDMEIDGQKLRDAFTWCMNEKLMTPEMFSEILCDDLDLNPLTFVPAIASAIRQQIESY [N27C], the abundance fitness is -0.923 ± 0.31.

For SQPEVLVPIRLDMEIDGQKLRDAFTWAMNEKLMTPEMFSEILCDDLDLNPLTFVPAIASAIRQQIESY [N27A], the abundance fitness is -0.754 ± 0.17.

For SQPEVLVPIRLDMEIDGQKNRDAFTWNMNEKLMTPEMFSEILCDDLDLNPLTFVPAIASAIRQQIESY [L20N], the abundance fitness is -0.788 ± 0.45.

Consider SQPEVLVPIRLDMEIDGQKLRDAFTWNMNEKLMTPEMFSEILCDDLDVNPLTFVPAIASAIRQQIESY [L48V], for which the abundance fitness was -0.554 ± 0.071.

In the case of SQPEVLVPIRLDMEIDGQKLRDAFTWNMNEKLMTPEMFSEILCDDLDNNPLTFVPAIASAIRQQIESY [L48N], the abundance fitness is -0.664 ± 0.17.

Turning to SQPEVLVPIRLDMEIDGQKLRDAFTWNMNEKLMTPEMFSEILCDDLDLNPLTFVTAIASAIRQQIESY [P55T], the abundance fitness was 0.479 ± 0.38.

As for SQPEVLVPIRLDMEIDGQKLRDAFTWNMNEKLETPEMFSEILCDDLDLNPLTFVPAIASAIRQQIESY [M33E], the abundance fitness is -0.794 ± 0.15.

As to SQPEVLVPIRLDMEIDGQKLRDAFTWNMNEKLMTPEMFSEILCDDLDLNPLTFVPAIASAIRQQIESC [Y68C], the abundance fitness is -0.643 ± 0.21.

For the variant SQPEVLVPIRLDMEIDGQKLRDAFTWNMNEKLMTPEMFSEILCDDLDLNPLTFVPAIASAIRQQIESA [Y68A], the abundance fitness was -0.127 ± 0.051.

For SQPEVLVPIRLDMEIDGQKLRDAFTWNMNEKLMTPEMFSEILCDDLDLNPLTFVPAIASAIRQQIESD [Y68D], the abundance fitness was -0.521 ± 0.12.

With SQPEVLVPIRLDMEIDGQALRDAFTWNMNEKLMTPEMFSEILCDDLDLNPLTFVPAIASAIRQQIESY [K19A], the abundance fitness is -0.32 ± 0.17.

In the case of SQPEVLVPIRLDTEIDGQKLRDAFTWNMNEKLMTPEMFSEILCDDLDLNPLTFVPAIASAIRQQIESY [M13T], the abundance fitness was -0.638 ± 0.34.

For the variant SQPEVLVPIRLDMEIDAQKLRDAFTWNMNEKLMTPEMFSEILCDDLDLNPLTFVPAIASAIRQQIESY [G17A], the abundance fitness is -0.867 ± 0.13.

On to SQPEVLVIIRLDMEIDGQKLRDAFTWNMNEKLMTPEMFSEILCDDLDLNPLTFVPAIASAIRQQIESY [P8I], for which the abundance fitness was -0.523 ± 0.1.

In the case of SQPEVLVPIRLDMEIDGQKLRDFFTWNMNEKLMTPEMFSEILCDDLDLNPLTFVPAIASAIRQQIESY [A23F], the abundance fitness was -0.039 ± 0.093.

On to SQPEVLVPIRLDMEIDGQKLRDAFTWNMNEKLMTPEMFSETLCDDLDLNPLTFVPAIASAIRQQIESY [I41T], for which the abundance fitness is 0.091 ± 0.049.

As for SQPEVLVPIRLDMEIDGQKLRDAFTWNMNEKLMTPEMFSEIICDDLDLNPLTFVPAIASAIRQQIESY [L42I], the abundance fitness was -0.005 ± 0.082.

For SQPEVLVPIRLDMEIDGQKLRDAFTWNMNEKLMTPEMFSEILCDDLDLNPLTFAPAIASAIRQQIESY [V54A], the abundance fitness is -0.119 ± 0.44.

Turning to SQPEVLVPIRLDMEIDGQKLRDAFTWNMNEKLMTPEMFSEILCADLDLNPLTFVPAIASAIRQQIESY [D44A], the abundance fitness amounted to 0.271 ± 0.22.

On to SQFEVLVPIRLDMEIDGQKLRDAFTWNMNEKLMTPEMFSEILCDDLDLNPLTFVPAIASAIRQQIESY [P3F], for which the abundance fitness came to 0.05 ± 0.078.

Take SQVEVLVPIRLDMEIDGQKLRDAFTWNMNEKLMTPEMFSEILCDDLDLNPLTFVPAIASAIRQQIESY [P3V]: the abundance fitness is -0.146 ± 0.045.
